# Test results: US20070224188A1
# Target: biotin-labeled soluble FcRn
# Experiment: FcRn ELISA pH 6.0
FcRn pH6.0 (% of wild type),FcRn6.0 (% of wild type),Substance
60,,anti-CD20 IgG1 S424M (antibody)
81,,anti-CD20 IgG1 L235Q (antibody)
134,,anti-CD20 IgG1 D376S (antibody)
114,,anti-CD20 IgG1 T256V (antibody)
188,,anti-CD20 IgG1 E382Y (antibody)
64,,anti-CD20 IgG1 L251F (antibody)
26,,anti-CD20 IgG1 P247Q (antibody)
115,,anti-CD20 IgG1 Y436T (antibody)
112,,anti-CD20 IgG1 P343Y (antibody)
89,,anti-CD20 IgG1 Q311P (antibody)
101,,anti-CD20 IgG1 E293S (antibody)
184,,anti-CD20 IgG1 P257S (antibody)
,102,anti-CD20 IgG1 332E376I (antibody)
106,,anti-CD20 IgG1 Y373E (antibody)
54,,anti-CD20 IgG1 G341Y (antibody)
172,,anti-CD20 IgG1 E382W (antibody)
115,,anti-CD20 IgG1 Q386K (antibody)
92,,anti-CD20 IgG1 E269N (antibody)
86,,anti-CD20 IgG1 H268K (antibody)
492,,anti-CD20 IgG1 T307E (antibody)
105,,anti-CD20 IgG1 P343N (antibody)
129,,anti-CD20 IgG1 I332H (antibody)
100,,anti-CD20 IgG1 Y373H (antibody)

FcRn pH6.0 (% of wild type),FcRn6.0 (% of wild type),Substance
165,,anti-CD20 IgG1 E382R (antibody)
131,,anti-CD20 IgG1 G316K (antibody)
153,,anti-CD20 IgG1 E382K (antibody)
112,,anti-CD20 IgG1 D249N (antibody)
103,,anti-CD20 IgG1 E382A (antibody)
206,,anti-CD20 IgG1 E283H (antibody)
131,,anti-CD20 IgG1 E382I (antibody)
34,,anti-CD20 IgG1 G316F (antibody)
0,,anti-CD20 IgG1 L251W (antibody)
70,,anti-CD20 IgG1 L432S (antibody)
138,,anti-CD20 IgG1 S442K (antibody)
86,,anti-CD20 IgG1 L314I (antibody)
171,,anti-CD20 IgG1 E430N (antibody)
57,,anti-CD20 IgG1 S424V (antibody)
,396,anti-CD20 IgG1 272R311I (antibody)
7,,anti-CD20 IgG1 S254G (antibody)
128,,anti-CD20 IgG1 I332M (antibody)
73,,anti-CD20 IgG1 Y373I (antibody)
93,,anti-CD20 IgG1 L235R (antibody)
96,,anti-CD20 IgG1 P271T (antibody)
124,,anti-CD20 IgG1 P244L (antibody)
,92,anti-CD20 IgG1 268D332E (antibody)
78,,anti-CD20 IgG1 G341R (antibody)

FcRn pH6.0 (% of wild type),FcRn6.0 (% of wild type),Substance
120,,anti-CD20 IgG1 D280K (antibody)
75,,anti-CD20 IgG1 Y373W (antibody)
124,,anti-CD20 IgG1 T260S (antibody)
87,,anti-CD20 IgG1 S440F (antibody)
125,,anti-CD20 IgG1 P343L (antibody)
107,,anti-CD20 IgG1 P329Y (antibody)
76,,anti-CD20 IgG1 G341W (antibody)
79,,anti-CD20 IgG1 G341M (antibody)
98,,anti-CD20 IgG1 Q438G (antibody)
,414,anti-CD20 IgG1 311I376V (antibody)
249,,anti-CD20 IgG1 E430R (antibody)
246,,anti-CD20 IgG1 E283K (antibody)
169,,anti-CD20 IgG1 T256S (antibody)
50,,anti-CD20 IgG1 D249M (antibody)
232,,anti-CD20 IgG1 P343K (antibody)
70,,anti-CD20 IgG1 Y373K (antibody)
,472,anti-CD20 IgG1 257I434H (antibody)
101,,anti-CD20 IgG1 S440G (antibody)
198,,anti-CD20 IgG1 P343R (antibody)
94,,anti-CD20 IgG1 D376N (antibody)
,439,anti-CD20 IgG1 272R283R (antibody)
200,,anti-CD20 IgG1 Q438L (antibody)
835,,anti-CD20 IgG1 P257M (antibody)

FcRn pH6.0 (% of wild type),FcRn6.0 (% of wild type),Substance
30,,anti-CD20 IgG1 K248W (antibody)
108,,anti-CD20 IgG1 D270G (antibody)
139,,anti-CD20 IgG1 V279Y (antibody)
351,,anti-CD20 IgG1 E272R (antibody)
56,,anti-CD20 IgG1 G237R (antibody)
,132,anti-CD20 IgG1 332E376V (antibody)
86,,anti-CD20 IgG1 S267H (antibody)
82,,anti-CD20 IgG1 A339R (antibody)
64,,anti-CD20 IgG1 R292F (antibody)
169,,anti-CD20 IgG1 Q438K (antibody)
186,,anti-CD20 IgG1 Q311L (antibody)
35,,anti-CD20 IgG1 P247H (antibody)
64,,anti-CD20 IgG1 T256Q (antibody)
121,,anti-CD20 IgG1 A330R (antibody)
151,,anti-CD20 IgG1 E382S (antibody)
78,,anti-CD20 IgG1 G237K (antibody)
102,,anti-CD20 IgG1 P343D (antibody)
158,,anti-CD20 IgG1 F423N (antibody)
62,,anti-CD20 IgG1 T250R (antibody)
42,,anti-CD20 IgG1 L314F (antibody)
165,,anti-CD20 IgG1 Q311K (antibody)
307,,anti-CD20 IgG1 N286F (antibody)
